Test results from article doi:10.1101/2024.12.01.626218, “TTF2 drives mitotic replisome disassembly and MiDAS by coupling the TRAIP ubiquitin ligase to Polε” (bioRxiv, 2024).
One block for each binder: values may come before it. Where no end group is shown, it is not given here. [ ]: non-standard residue; d: D form. pT = C[C@@H](OP(=O)(O)O)[C@H](N)C(=O)O

Columns and labels:
[1] = biological target: the molecule itself; test: mass photometry; Refeyn OneMP; TRAIP diluted to 6.4 ng/µl (~50 nM of TRAIP dimer); 25 mM Hepes-KOH pH 7.9, 150 mM NaCl, 10 mM MgOAc, 1 mM DTT
HisSUMO-TTF2 1-100 [2] = biological target: T1, HisSUMO-TTF2 1-100 (mouse, UniProt Q5NC05 1-100); test: ITC; MicroCal PEAQ-ITC; 20 µM HisSUMO-TTF2 1-100 in the cell, 200 µM TRAIP peptide injected (19 x 2 µl); 50 mM Tris-HCl pH 7.5, 100 mM NaCl, 0.5 mM TCEP; settings: both partners purified
T1 construct: mouse TTF2 residues 1-100 (tandem Zinc fingers); also called His-SUMO-tagged TTF2; recombinant form of TTF2 1-100; source: E. coli Rosetta (DE3) pLysS, purified (Ni-NTA, Superdex 200); not shown: 14His, N-terminal, kept; Smt3 (budding yeast SUMO), N-terminal, kept
T1 sequence (looked up): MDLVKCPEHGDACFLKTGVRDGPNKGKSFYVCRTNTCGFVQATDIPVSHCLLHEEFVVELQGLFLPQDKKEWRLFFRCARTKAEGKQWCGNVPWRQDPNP

HisSUMO-TTF2 1-100 [3] = biological target: T2, HisSUMO-TTF2 1-100 (mouse, UniProt Q5NC05 1-100); test: ITC; phosphorylated T325
T2 chain: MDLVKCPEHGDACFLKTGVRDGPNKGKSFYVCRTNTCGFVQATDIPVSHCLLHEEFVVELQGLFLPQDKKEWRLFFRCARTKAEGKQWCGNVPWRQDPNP

[4] = biological target: T3, His-SUMO-TTF2 1-100 (tandem zinc fingers) (Mus musculus, UniProt Q5NC05 1-100); test: EMSA; 10 nM DNA; EMSA buffer (25 mM buffer component; full composition not in the material), 10 nM Cy5-DNA, 10 µl, room temperature, 10 min; Novex TBE 4-12% gel, 150 V, 40 min; settings: protein: recombinant, tags: N-terminal 14His-SUMO (yeast Smt3)
T3 sequence: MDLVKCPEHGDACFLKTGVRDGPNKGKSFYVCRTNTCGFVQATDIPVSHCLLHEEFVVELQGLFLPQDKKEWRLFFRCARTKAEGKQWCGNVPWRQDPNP

B1: recombinant mouse TRAIP (enzyme, UniProt Q8VIG6-1 1-470, looked up)
chain: MPIRALCTICSDFFDHSRDVAAIHCGHTFHLQCLIQWFETAPSRTCPQCRIQVGKKTIINKLFFDLAQEEENVLDAEFLKNELDSVKAQLSQKDREKRDSQAIIDTLRDTLEERNATVESLQNALNKAEMLCSTLKKQMKFLEQRQDETKQAREEAHRLKCKMKTMEQIELLLQSQRSEVEEMIRDMGVGQSAVEQLAVYCVSLKKEYENLKEARKATGELADRLKKDLVSSRSKLKTLNTELDQAKLELRSAQKDLQSADQEITSLRKKLMILQGTLSLPPATNETVSRLVFESPAPVEMMNPRLHQPPFGDEIDLNTTFDVNTPPTQTSGSQHCLPKKLCLERARSPMQNVLKKVHKVSKPESQLSLGGQRCVGELDEELAGAFPLFIRNAVLGQKQPNRTTAESRCSTDVVRIGFDGLGGRTKFIQPRDTTIIRPVPVKSKAKSKQKVRIKTVSSASQPKLDTFLCQ
notes: Mw of the monomer 53.1 kDa; the tag was cut off with Ulp1; also called purified TRAIP; TRAIP ubiquitin ligase; source: E. coli Rosetta (DE3) pLysS, purified (Ni-NTA, HiTrapQ, HiTrap Heparin, Superose 6); not shown: 14His-Smt3 (budding yeast SUMO), N-terminal, cleaved
stoichiometry N [1]: 2

binding result (HisSUMO-TTF2 1-100 [2]): binds | Kd (HisSUMO-TTF2 1-100 [3]): 2.3 µM
B2: peptide corresponding to mouse TRAIP 313-329 with phosphorylated T325 (peptide)
peptide: FGDEIDLNTTFDVN[pT]PPTQ
modifications: not fully specified; printed as FGDEIDLNTTFDVN**T**PPTQ
notes: mouse TRAIP; the CDK consensus (T followed by P) points to the 15th letter; also called phosphorylated peptide; source: synthetic peptide (Peptide & Elephants)

B3: YX011 80-nt ssDNA (ssDNA)
DNA: CAGTGCCAAGCTTGCATGCCTGCAGGTCGACTCTAGAGGATCCCCGGGTACCGAGCTCGAATTCGTAATCATGGTCATAG
binding result ([4]; label: 5'-Cy5): no binding

B4: YX011/YX012 80-bp dsDNA (dsDNA)
DNA 1: CAGTGCCAAGCTTGCATGCCTGCAGGTCGACTCTAGAGGATCCCCGGGTACCGAGCTCGAATTCGTAATCATGGTCATAG
DNA 2: CTATGACCATGATTACGAATTCGAGCTCGGTACCCGGGGATCCTCTAGAGTCGACCTGCAGGCATGCAAGCTTGGCACTG
binding result ([4]; label: 5'-Cy5 on strand 1, blunt): no binding
